Experimental data reported in patent US20080161236 (published 2008).

Experiments:
[1] = target: Botulinum neurotoxin serotype A light chain (50 kD zinc endopeptidase) (Clostridium botulinum, UniProt P0DPI1 P0DPI1:2-448)
[2] = target: Botulinum neurotoxin serotype B holotoxin (Clostridium botulinum, UniProt B1INP5;B1INP5 B1INP5:2-441,B1INP5:442-1291)
[3] = target: Botulinum neurotoxin serotype B light chain (Clostridium botulinum, UniProt B1INP5 B1INP5:2-441)
[4] = target: Botulinum neurotoxin serotype A holotoxin (Clostridium botulinum, UniProt P0DPI1;P0DPI1 P0DPI1:2-448,P0DPI1:449-1296)

Measured: binding result

Sequence of Botulinum neurotoxin serotype A light chain (50 kD zinc endopeptidase) (P0DPI1 2-448, one chain of several): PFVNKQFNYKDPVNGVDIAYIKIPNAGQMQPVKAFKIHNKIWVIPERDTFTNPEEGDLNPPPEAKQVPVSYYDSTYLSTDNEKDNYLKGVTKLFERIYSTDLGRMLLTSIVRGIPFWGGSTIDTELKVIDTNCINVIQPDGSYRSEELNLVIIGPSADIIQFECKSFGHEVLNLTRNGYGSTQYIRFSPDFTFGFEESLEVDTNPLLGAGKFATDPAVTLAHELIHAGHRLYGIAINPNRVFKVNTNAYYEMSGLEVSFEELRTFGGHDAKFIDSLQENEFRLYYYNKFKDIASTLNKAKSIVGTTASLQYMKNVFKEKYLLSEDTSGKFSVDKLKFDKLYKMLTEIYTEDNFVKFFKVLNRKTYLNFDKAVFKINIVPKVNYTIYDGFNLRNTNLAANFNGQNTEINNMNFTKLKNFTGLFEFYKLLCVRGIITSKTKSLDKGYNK
Sequence of Botulinum neurotoxin serotype B holotoxin (B1INP5 2-441, chain 1 of 2): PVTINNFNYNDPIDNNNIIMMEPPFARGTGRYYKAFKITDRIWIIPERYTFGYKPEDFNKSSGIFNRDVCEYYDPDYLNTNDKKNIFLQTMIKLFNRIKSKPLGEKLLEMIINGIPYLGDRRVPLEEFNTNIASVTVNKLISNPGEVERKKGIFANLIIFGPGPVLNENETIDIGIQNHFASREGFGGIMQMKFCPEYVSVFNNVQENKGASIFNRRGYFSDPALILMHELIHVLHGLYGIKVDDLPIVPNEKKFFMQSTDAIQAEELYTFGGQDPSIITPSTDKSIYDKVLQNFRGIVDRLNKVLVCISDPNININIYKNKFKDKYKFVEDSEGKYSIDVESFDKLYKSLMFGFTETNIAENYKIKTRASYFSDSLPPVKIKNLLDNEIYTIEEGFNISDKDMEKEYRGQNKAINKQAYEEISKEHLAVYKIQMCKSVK
Sequence of Botulinum neurotoxin serotype B holotoxin (B1INP5 442-1291, chain 2 of 2): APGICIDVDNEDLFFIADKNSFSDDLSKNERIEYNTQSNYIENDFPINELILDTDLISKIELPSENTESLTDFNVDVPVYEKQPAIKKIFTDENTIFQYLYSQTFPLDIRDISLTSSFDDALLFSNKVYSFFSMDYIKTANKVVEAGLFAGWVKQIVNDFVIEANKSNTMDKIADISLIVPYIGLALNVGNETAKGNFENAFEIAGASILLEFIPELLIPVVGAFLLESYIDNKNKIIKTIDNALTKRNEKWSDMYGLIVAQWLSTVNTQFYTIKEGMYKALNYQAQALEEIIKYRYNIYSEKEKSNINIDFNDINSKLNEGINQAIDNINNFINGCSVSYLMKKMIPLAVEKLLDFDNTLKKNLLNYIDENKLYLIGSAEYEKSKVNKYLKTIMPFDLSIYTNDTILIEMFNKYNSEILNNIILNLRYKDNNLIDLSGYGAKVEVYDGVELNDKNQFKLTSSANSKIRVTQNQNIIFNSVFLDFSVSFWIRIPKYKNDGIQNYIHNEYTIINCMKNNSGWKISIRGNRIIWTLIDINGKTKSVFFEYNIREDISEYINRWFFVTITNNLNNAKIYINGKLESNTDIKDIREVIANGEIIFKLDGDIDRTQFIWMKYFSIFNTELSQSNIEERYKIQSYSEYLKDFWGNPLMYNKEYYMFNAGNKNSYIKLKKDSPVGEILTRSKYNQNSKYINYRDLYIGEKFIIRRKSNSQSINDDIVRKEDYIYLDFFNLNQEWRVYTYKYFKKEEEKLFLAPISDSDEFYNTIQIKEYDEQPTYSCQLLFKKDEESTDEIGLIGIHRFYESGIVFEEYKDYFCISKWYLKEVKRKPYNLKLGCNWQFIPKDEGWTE
Sequence of Botulinum neurotoxin serotype B light chain (B1INP5 2-441, one chain of several): as the sequence (B1INP5 2-441, chain 1 of 2) above
Sequence of Botulinum neurotoxin serotype A holotoxin (P0DPI1 2-448, chain 1 of 2): as the sequence (P0DPI1 2-448, one chain of several) above
Sequence of Botulinum neurotoxin serotype A holotoxin (P0DPI1 449-1296, chain 2 of 2): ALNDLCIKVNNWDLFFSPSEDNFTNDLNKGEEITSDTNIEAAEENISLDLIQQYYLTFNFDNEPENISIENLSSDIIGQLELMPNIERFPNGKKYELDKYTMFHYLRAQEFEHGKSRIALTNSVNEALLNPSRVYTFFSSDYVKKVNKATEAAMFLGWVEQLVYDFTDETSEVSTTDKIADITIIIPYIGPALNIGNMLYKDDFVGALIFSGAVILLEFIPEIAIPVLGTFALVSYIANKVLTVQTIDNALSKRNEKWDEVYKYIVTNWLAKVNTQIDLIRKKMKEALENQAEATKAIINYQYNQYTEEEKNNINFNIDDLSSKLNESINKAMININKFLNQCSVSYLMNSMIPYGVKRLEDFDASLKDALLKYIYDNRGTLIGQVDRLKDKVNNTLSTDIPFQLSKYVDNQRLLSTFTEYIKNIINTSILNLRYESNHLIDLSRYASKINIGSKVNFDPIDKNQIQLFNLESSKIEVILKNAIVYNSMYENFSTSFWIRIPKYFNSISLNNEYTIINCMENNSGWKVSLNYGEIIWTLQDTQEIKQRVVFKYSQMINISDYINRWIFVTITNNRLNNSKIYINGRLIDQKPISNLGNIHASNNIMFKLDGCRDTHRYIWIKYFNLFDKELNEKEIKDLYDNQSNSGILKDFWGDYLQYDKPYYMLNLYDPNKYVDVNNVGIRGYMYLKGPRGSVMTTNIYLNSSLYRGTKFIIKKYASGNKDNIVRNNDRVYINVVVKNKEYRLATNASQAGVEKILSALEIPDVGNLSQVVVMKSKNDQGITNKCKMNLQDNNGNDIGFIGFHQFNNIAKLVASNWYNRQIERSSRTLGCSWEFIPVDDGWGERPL

B1: BoNT A/B HT aptamer (ssDNA)
DNA: CATCCGTCACACCTGCTCTGCTATCACATGCCTGCTGAAGTGGTGTTGGCTCCCGTATCA
binds: [1] | [2] | [3]

B2: BoNT A/B LC aptamer (ssDNA)
DNA: CATCCGTCACACCTGCTCTGATCAGGGAAGACGCCAACACTGGTGTTGGCTCCCGTATCA
binds: all assays above
